The results in this text go back to patent US20220235143A1.

For assay [1], the target named is MUC16 c114 expressed on transfected SKOV3 cells (SKOV3^c114) (human). Briefly: FACS surface staining of SKOV3-c114 transfectant cells, goat anti-mouse IgG2b-PE detection; same cells: secondary alone 6.80, cells only 0.14; 4H11 on vector control SKOV3-phrGFP 2.80.
For assay [2] the target is unchanged. Description: saturation binding assay, 89Zr-labeled antibody on SKOV3^c114 cells, cell bound activity (counts); right panel.
For assay [3] the target is unchanged. Briefly: FACS surface staining of SKOV3-c114 transfectant cells, goat anti-mouse IgG2b-PE detection; same cells: secondary alone 138, cells only 36.8; 4H11 on vector control SKOV3-phrGFP 162.
Assay [4] shares this target. Description: Lindmo cell-binding assay, 89Zr-DFO antibody on SKOV3^c114 cells.
The target is the same in assay [5]. Briefly: Lindmo cell-binding assay on SKOV3^c114 cells.
Assay [6] addresses MUC16 c344 expressed on transfected cells (SKOV3-phrGFP-MUC16c344, A2780-phrGFP-MUC16c344) (human). Description: FACS surface staining of SKOV3-c344 transfectant cells, goat anti-mouse IgG2b-PE detection; same cells: secondary alone 106, cells only 49.2; 4H11 on vector control SKOV3-phrGFP 162.
Assay [7] concerns the target MUC16 c114 expressed on transfected SKOV3 cells (SKOV3^c114) (human). Description: saturation binding of 89Zr-DFO antibody on SKOV3^c114 cells.
The target in assay [8] is MUC16 c344 expressed on transfected cells (SKOV3-phrGFP-MUC16c344, A2780-phrGFP-MUC16c344) (human). Briefly: FACS surface staining of A2780-c344 transfectant cells, goat anti-mouse IgG2b-PE detection; same cells: secondary alone 69.8, cells only 33.7; 4H11 on vector control A2780-phrGFP: bar at the level of secondary alone, label overlapped.
For assay [9] the target is unchanged. Description: FACS surface staining of SKOV3-c344 transfectant cells, goat anti-mouse IgG2b-PE detection; same cells: secondary alone 0.53, cells only 0.04; 4H11 on vector control SKOV3-phrGFP 2.80.
Assay [10] addresses MUC16 c114 expressed on transfected SKOV3 cells (SKOV3^c114) (human). Briefly: FACS surface staining of A2780-c114 transfectant cells, goat anti-mouse IgG2b-PE detection; same cells: secondary alone 42.3, cells only 24.6; 4H11 on vector control A2780-phrGFP: bar at the level of secondary alone, label overlapped.
In assay [11] the target is MUC16 as naturally expressed on ovarian cancer cell lines (OVCAR3; also OVCA-433, CAOV3) (human). Briefly: FACS surface staining of OVCAR3 cells, goat anti-mouse IgG2b-PE detection; same cells: secondary alone 1.95, cells only 0.34.
Assay [12] concerns the target MUC16 c344 expressed on transfected cells (SKOV3-phrGFP-MUC16c344, A2780-phrGFP-MUC16c344) (human). Description: FACS surface staining of A2780-c344 transfectant cells, goat anti-mouse IgG2b-PE detection; same cells: secondary alone 0.68, cells only 0.07; 4H11 on vector control A2780-phrGFP 0.88.
Assay [13] addresses MUC16 as naturally expressed on ovarian cancer cell lines (OVCAR3; also OVCA-433, CAOV3) (human). Briefly: FACS surface staining of OVCAR3 cells, goat anti-mouse IgG2b-PE detection; same cells: secondary alone 65.8, cells only 24.6.
Assay [14] addresses MUC16 c114 expressed on transfected SKOV3 cells (SKOV3^c114) (human). Description: FACS surface staining of A2780-c114 transfectant cells, goat anti-mouse IgG2b-PE detection; same cells: secondary alone 0.10, cells only 0.01; 4H11 on vector control A2780-phrGFP 0.88.

Chain of MUC16 c344 expressed on transfected cells (SKOV3-phrGFP-MUC16c344, A2780-phrGFP-MUC16c344) (human) (chain, as listed by the source limits assumed): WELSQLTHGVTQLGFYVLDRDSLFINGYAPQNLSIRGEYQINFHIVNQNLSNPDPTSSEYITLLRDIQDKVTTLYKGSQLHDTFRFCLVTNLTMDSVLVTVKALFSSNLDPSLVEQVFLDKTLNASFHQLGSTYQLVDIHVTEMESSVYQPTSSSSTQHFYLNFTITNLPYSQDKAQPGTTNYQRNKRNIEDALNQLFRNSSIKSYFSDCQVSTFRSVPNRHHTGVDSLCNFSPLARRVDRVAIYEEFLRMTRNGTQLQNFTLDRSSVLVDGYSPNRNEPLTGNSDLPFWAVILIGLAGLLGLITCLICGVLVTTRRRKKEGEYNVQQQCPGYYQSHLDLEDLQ
Chain of MUC16 c114 expressed on transfected SKOV3 cells (SKOV3^c114) (human) (chain, as listed by the source limits assumed): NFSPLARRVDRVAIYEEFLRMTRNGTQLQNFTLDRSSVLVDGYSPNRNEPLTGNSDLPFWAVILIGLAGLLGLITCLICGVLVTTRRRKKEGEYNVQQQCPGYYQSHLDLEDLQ

For orientation: EC50 (read off the curve) means the concentration that produces a half-maximal response. Low values mean an effect from little substance, high ones a need for much substance. In general, Kd refers to the free concentration of one partner at which half of the binding sites on the other are occupied at equilibrium, for simple one-to-one binding. A high value points to weaker binding. For the substance 4H11 murine monoclonal antibody, the % PE Positive in [1] turned out to be 95.9%; in assay [9], 41.2%; in [11], 98.5%; in assay [12] it was 93.8%; in assay [14], 71.3%. The EC50 (read off the curve) in assay [2] came to 6 nM. Also, the results for the Kd in [2] and in assay [7] were 6.37 nM and 6.4 nM, respectively. Also, the Geometric Mean PE Fluorescence (Relative Number) was 2080 in assay [3]; 1580 in assay [6]; 777 in assay [8]; 544 in [10]; 3050 in [13]. Moreover, the Immunoreactive Fraction (%) in assay [4] is 88.3%. In assay [5], the immunoreactive fraction was more than 80%.
